These results are taken from paper PMC5707476, “Enzyme repurposing of a hydrolase as an emergent peroxidase upon metal binding” (Chemical Science, 2015).

The term Km denotes the substrate concentration at which the rate is half of its maximum. As a reminder, the kcat/Km is the turnover number divided by the Michaelis constant.

Substrate in the data set: COc1cc(-c2ccc(N)c(OC)c2)ccc1N
In words: purified protein. It is filed as biochemical, Mycolicibacterium smegmatis. As to conditions: 6.6 mM t-BuOOH, 4.5 μM Cu(II).

The mark [1] stands for this setting: 6-PGLac (parent), 1.25 μM protein, MES pH 6.5, 150 mM NaCl, 25 °C, free copper background subtracted.
Where [2] appears, read: D131N (reversion of parent N131D = natural sequence), 1.25 μM protein, MES pH 6.5, 150 mM NaCl, 25 °C, free copper background subtracted.
[3] abbreviates: Y69L on the N131D parent, MES pH 6.5, 25 °C.
Where [4] appears, read: H9A on the N131D parent, MES pH 6.5, 25 °C.
Setting [5] is: Y69F on the N131D parent, MES pH 6.5, 25 °C.
Setting [6] is: Y69W on the N131D parent, MES pH 6.5, 25 °C.
[7] abbreviates: H95A on the N131D parent, MES pH 6.5, 25 °C.

B1: 6-phosphogluconolactonase (6-PGLac; Cu·6-PGLac) (Mycolicibacterium smegmatis MC2 155; N131D) (protein)
chain: MSDTVIERHADTAALVAAAGDRLVDAISSAIGERGQATIVLTGGGTGIGLLKRVRERSGEIDWSKVHIYWGDERFVPQDDDERNDKQAREALLDHIGIPPVNVHAMAASDGEFGDDLEAAAAGYAQLLSADFDSSVPGFDVHLLGMGGEGHVNSLFPDTDAVRETERLVVGVSDSPKPPPRRITLTLPAVQNSREVWLVVSGEAKADAVAAAVGGADPVDIPAAGAVGRERTVWLVDEAAAAKL
notes: Strep-tag II, expressed in E. coli, purified, loaded with Cu(II)
Turning to B1, under setting [1], the Km came to 11 ± 3 µM, the kcat is 78 ± 4 × 10^-3 s^-1 and the kcat/Km was found to be 6900 ± 2000 M⁻¹ s⁻¹. Further, under setting [2], the Km turned out to be 21 ± 6 µM, the kcat is recorded as 150 ± 10 × 10^-3 s^-1 and the kcat/Km came out at 7200 ± 2000 M⁻¹ s⁻¹.

B2: 6-phosphogluconolactonase (6-PGLac; Cu·6-PGLac) (Mycolicibacterium smegmatis MC2 155; N131D/Y69L) (protein)
chain: MSDTVIERHADTAALVAAAGDRLVDAISSAIGERGQATIVLTGGGTGIGLLKRVRERSGEIDWSKVHILWGDERFVPQDDDERNDKQAREALLDHIGIPPVNVHAMAASDGEFGDDLEAAAAGYAQLLSADFDSSVPGFDVHLLGMGGEGHVNSLFPDTDAVRETERLVVGVSDSPKPPPRRITLTLPAVQNSREVWLVVSGEAKADAVAAAVGGADPVDIPAAGAVGRERTVWLVDEAAAAKL
notes: as for B1
Regarding B2, under setting [3], the Km amounted to 82 ± 10 µM, the kcat is recorded as 490 ± 30 × 10^-3 s^-1 and the kcat/Km was found to be 5900 ± 900 M⁻¹ s⁻¹.

B3: 6-phosphogluconolactonase (6-PGLac; Cu·6-PGLac) (Mycolicibacterium smegmatis MC2 155; H9A/N131D) (protein)
chain: MSDTVIERAADTAALVAAAGDRLVDAISSAIGERGQATIVLTGGGTGIGLLKRVRERSGEIDWSKVHIYWGDERFVPQDDDERNDKQAREALLDHIGIPPVNVHAMAASDGEFGDDLEAAAAGYAQLLSADFDSSVPGFDVHLLGMGGEGHVNSLFPDTDAVRETERLVVGVSDSPKPPPRRITLTLPAVQNSREVWLVVSGEAKADAVAAAVGGADPVDIPAAGAVGRERTVWLVDEAAAAKL
notes: as for B1
Turning to B3, under setting [4], the Km is 12 ± 5 µM, the kcat is 80 ± 6 × 10^-3 s^-1 and the kcat/Km came out at 6500 ± 3000 M⁻¹ s⁻¹.

B4: 6-phosphogluconolactonase (6-PGLac; Cu·6-PGLac) (Mycolicibacterium smegmatis MC2 155; N131D/Y69F) (protein)
chain: MSDTVIERHADTAALVAAAGDRLVDAISSAIGERGQATIVLTGGGTGIGLLKRVRERSGEIDWSKVHIFWGDERFVPQDDDERNDKQAREALLDHIGIPPVNVHAMAASDGEFGDDLEAAAAGYAQLLSADFDSSVPGFDVHLLGMGGEGHVNSLFPDTDAVRETERLVVGVSDSPKPPPRRITLTLPAVQNSREVWLVVSGEAKADAVAAAVGGADPVDIPAAGAVGRERTVWLVDEAAAAKL
notes: as for B1
B4: under setting [5], the Km was found to be 36 ± 8 µM, the kcat is 100 ± 7 × 10^-3 s^-1 and the kcat/Km came to 2900 ± 700 M⁻¹ s⁻¹.

B5: 6-phosphogluconolactonase (6-PGLac; Cu·6-PGLac) (Mycolicibacterium smegmatis MC2 155; N131D/Y69W) (protein)
chain: MSDTVIERHADTAALVAAAGDRLVDAISSAIGERGQATIVLTGGGTGIGLLKRVRERSGEIDWSKVHIWWGDERFVPQDDDERNDKQAREALLDHIGIPPVNVHAMAASDGEFGDDLEAAAAGYAQLLSADFDSSVPGFDVHLLGMGGEGHVNSLFPDTDAVRETERLVVGVSDSPKPPPRRITLTLPAVQNSREVWLVVSGEAKADAVAAAVGGADPVDIPAAGAVGRERTVWLVDEAAAAKL
notes: as for B1
On to B5, for which, under setting [6], the Km stood at 4.8 ± 2 µM, the kcat is 33 ± 2 × 10^-3 s^-1 and the kcat/Km is 6900 ± 3000 M⁻¹ s⁻¹.

B6: 6-phosphogluconolactonase (6-PGLac; Cu·6-PGLac) (Mycolicibacterium smegmatis MC2 155; H95A/N131D) (protein)
chain: MSDTVIERHADTAALVAAAGDRLVDAISSAIGERGQATIVLTGGGTGIGLLKRVRERSGEIDWSKVHIYWGDERFVPQDDDERNDKQAREALLDAIGIPPVNVHAMAASDGEFGDDLEAAAAGYAQLLSADFDSSVPGFDVHLLGMGGEGHVNSLFPDTDAVRETERLVVGVSDSPKPPPRRITLTLPAVQNSREVWLVVSGEAKADAVAAAVGGADPVDIPAAGAVGRERTVWLVDEAAAAKL
notes: as for B1
B6: under setting [7], the Km was 17 ± 5 µM, the kcat was 80 ± 6 × 10^-3 s^-1 and the kcat/Km worked out at 4600 ± 2000 M⁻¹ s⁻¹.
